The supplement of paper PMC10724198
± gives the standard deviation of the averaged measurements.

Tested on: Saccharomyces cerevisiae
Assay: protein stability index of tFT-peptide fusion (C-terminal peptide) (PSI (0-1 scale)); higher = more stable (slower turnover)
Settings: temperature: 30 C
Description: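 MPS profiling in S. cerevisiae of the yeast C-terminome library: the last 12 aa of each annotated ORF are fused to the C-terminus of a sfGFP-mCherry timer, after a GGGS linker. Cells are FACS-sorted into 8 mCherry/sfGFP bins and deep-sequenced. PSI runs from 0 (unstable) to 1 (stable); wild type and das1Δ backgrounds, two technical replicates each.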

[1] = genetic background: das1 deletion

Sequence: KLYILKHLGSKQ [RRG9 C-terminal 12 aa]
- protein stability index [1]: 0.681 ± 0.037
- protein stability index (genetic background: wild type): 0.685 ± 0.019

Sequence: KMVLSHMKEKKD [YGL140C C-terminal 12 aa]
- protein stability index [1]: 0.688 ± 0.011
- protein stability index (genetic background: wild type): 0.682 ± 0.017

Sequence: KNEDSEVEDDLI [CUS2 C-terminal 12 aa]
- protein stability index [1]: 0.703 ± 0.042
- protein stability index (genetic background: wild type): 0.67 ± 0.0098

Sequence: KNGKVDPLKNFK [DBP9 C-terminal 12 aa]
- protein stability index [1]: 0.701 ± 0.015
- protein stability index (genetic background: wild type): 0.684 ± 0.026

Sequence: KNSGEKLVAVLN [YCR102C C-terminal 12 aa]
- protein stability index [1]: 0.6723 ± 0.001
- protein stability index (genetic background: wild type): 0.666 ± 0.025

Sequence: KPDVERVYKENT [FAA4 C-terminal 12 aa]
- protein stability index [1]: 0.701 ± 0.025
- protein stability index (genetic background: wild type): 0.665 ± 0.011

Sequence: KPEFVDIINSRN [TPI1 C-terminal 12 aa]
- protein stability index [1]: 0.7145 ± 0.0052
- protein stability index (genetic background: wild type): 0.691 ± 0.026

Sequence: KPLSKPAPDLDY [CWC25 C-terminal 12 aa]
- protein stability index [1]: 0.66 ± 0.024
- protein stability index (genetic background: wild type): 0.676 ± 0.0075

Sequence: KPRKKAKALPKT [RTT109 C-terminal 12 aa]
- protein stability index [1]: 0.689 ± 0.032
- protein stability index (genetic background: wild type): 0.737 ± 0.014

Sequence: KPRWYRIWNFWC [GAP1 C-terminal 12 aa]
- protein stability index [1]: 0.803 ± 0.017
- protein stability index (genetic background: wild type): 0.419 ± 0.024

Sequence: KQIDVFNGPKRV [MIG2 C-terminal 12 aa]
- protein stability index [1]: 0.713 ± 0.0091
- protein stability index (genetic background: wild type): 0.7313 ± 0.0019

Sequence: KQNIPRKPNVDI [BNS1 C-terminal 12 aa]
- protein stability index [1]: 0.6875 ± 0.0057
- protein stability index (genetic background: wild type): 0.677 ± 0.018

Sequence: KRDIVFAASLYL [SKI2 C-terminal 12 aa]
- protein stability index [1]: 0.6855 ± 0.0061
- protein stability index (genetic background: wild type): 0.739 ± 0.12

Sequence: KRDKLKKNCVIM [YGL082W C-terminal 12 aa]
- protein stability index [1]: 0.74 ± 0.016
- protein stability index (genetic background: wild type): 0.698 ± 0.034

Sequence: KREKTMRNSMLP [YIR036W-A C-terminal 12 aa]
- protein stability index [1]: 0.684 ± 0.0091
- protein stability index (genetic background: wild type): 0.736 ± 0.076

Sequence: KRLTSRLNKKHK [SPN1 C-terminal 12 aa]
- protein stability index [1]: 0.6937 ± 0.0067
- protein stability index (genetic background: wild type): 0.69 ± 0.046

Sequence: KRSLTLPVGMKI [AIM44 C-terminal 12 aa]
- protein stability index [1]: 0.683 ± 0.026
- protein stability index (genetic background: wild type): 0.658 ± 0.02

Sequence: KRYTVKKALAKA [RPL14A C-terminal 12 aa]
- protein stability index [1]: 0.6258 ± 0.0061
- protein stability index (genetic background: wild type): 0.627 ± 0.013

Sequence: KSADPDAMDTTE [RVB2 C-terminal 12 aa]
- protein stability index [1]: 0.702 ± 0.016
- protein stability index (genetic background: wild type): 0.695 ± 0.021

Sequence: KSAKATKASQEL [HTA1 C-terminal 12 aa]
- protein stability index [1]: 0.691 ± 0.011
- protein stability index (genetic background: wild type): 0.675 ± 0.045

Sequence: KSEIDTLKQDQK [TYE7 C-terminal 12 aa]
- protein stability index [1]: 0.656 ± 0.011
- protein stability index (genetic background: wild type): 0.6659 ± 0.0018

Sequence: KTATTLPGRRFV [LUC7 C-terminal 12 aa]
- protein stability index [1]: 0.6923 ± 0.0011
- protein stability index (genetic background: wild type): 0.704 ± 0.017

Sequence: KVHRKKVPGCTI [YGR011W C-terminal 12 aa]
- protein stability index [1]: 0.697 ± 0.015
- protein stability index (genetic background: wild type): 0.686 ± 0.029

Sequence: KVIFKDRPLPIM [CTF8 C-terminal 12 aa]
- protein stability index [1]: 0.643 ± 0.032
- protein stability index (genetic background: wild type): 0.611 ± 0.012

Sequence: KVYDELKKQGLV [PRP9 C-terminal 12 aa]
- protein stability index [1]: 0.693 ± 0.017
- protein stability index (genetic background: wild type): 0.676 ± 0.0062

Sequence: KYNSQKRATTPA [COQ4 C-terminal 12 aa]
- protein stability index [1]: 0.712 ± 0.027
- protein stability index (genetic background: wild type): 0.6698 ± 0.0039

Sequence: LAFRAHTMPNAP [ATO3 C-terminal 12 aa]
- protein stability index [1]: 0.699 ± 0.0097
- protein stability index (genetic background: wild type): 0.694 ± 0.033

Sequence: LATWDKQGNLKY [SRN2 C-terminal 12 aa]
- protein stability index [1]: 0.724 ± 0.012
- protein stability index (genetic background: wild type): 0.696 ± 0.026

Sequence: LCLLESLDCLAK [PMT7 C-terminal 12 aa]
- protein stability index [1]: 0.6692 ± 0.0024
- protein stability index (genetic background: wild type): 0.68 ± 0.017

Sequence: LCPVFFTWTNLR [YSR3 C-terminal 12 aa]
- protein stability index [1]: 0.656 ± 0.008
- protein stability index (genetic background: wild type): 0.656 ± 0.034

Sequence: LDKEMADYFEKK [YRA1 C-terminal 12 aa]
- protein stability index [1]: 0.693 ± 0.013
- protein stability index (genetic background: wild type): 0.706 ± 0.035

Sequence: LEDHTPPEDKPN [QCR10 C-terminal 12 aa]
- protein stability index [1]: 0.718 ± 0.021
- protein stability index (genetic background: wild type): 0.695 ± 0.0076

Sequence: LEEFLVRGTNNQ [ATP25 C-terminal 12 aa]
- protein stability index [1]: 0.711 ± 0.018
- protein stability index (genetic background: wild type): 0.663 ± 0.012

Sequence: LEEPYKPQRQRC [YPL088W C-terminal 12 aa]
- protein stability index [1]: 0.6798 ± 0.0049
- protein stability index (genetic background: wild type): 0.718 ± 0.0087

Sequence: LFTCTDPNDTIE [MMS4 C-terminal 12 aa]
- protein stability index [1]: 0.721 ± 0.027
- protein stability index (genetic background: wild type): 0.72 ± 0.03

Sequence: LFVTDGSLLLDL [EDC3 C-terminal 12 aa]
- protein stability index [1]: 0.703 ± 0.014
- protein stability index (genetic background: wild type): 0.685 ± 0.032

Sequence: LGMINTVVSLDR [YBR221W-A C-terminal 12 aa]
- protein stability index [1]: 0.691 ± 0.022
- protein stability index (genetic background: wild type): 0.672 ± 0.04

Sequence: LIAEILLARNLI [HOM2 C-terminal 12 aa]
- protein stability index [1]: 0.71 ± 0.0084
- protein stability index (genetic background: wild type): 0.662 ± 0.007

Sequence: LIGFGNQVSKAL [BUD25 C-terminal 12 aa]
- protein stability index [1]: 0.703 ± 0.03
- protein stability index (genetic background: wild type): 0.723 ± 0.027

Sequence: LISCCCCCFRRC [YNL097W-A C-terminal 12 aa]
- protein stability index [1]: 0.6974 ± 0.004
- protein stability index (genetic background: wild type): 0.669 ± 0.016

Sequence: LKAVCPPDAGFA [YOR387C C-terminal 12 aa]
- protein stability index [1]: 0.7086 ± 0.0046
- protein stability index (genetic background: wild type): 0.7462 ± 0.0071

Sequence: LKHFIKVFSSKL [ARR1 C-terminal 12 aa]
- protein stability index [1]: 0.825 ± 0.013
- protein stability index (genetic background: wild type): 0.89 ± 0.024

Sequence: LKITDDLARKGF [TGL2 C-terminal 12 aa]
- protein stability index [1]: 0.7205 ± 0.0035
- protein stability index (genetic background: wild type): 0.666 ± 0.0096

Sequence: LKKKLYTLEQKK [KEL2 C-terminal 12 aa]
- protein stability index [1]: 0.694 ± 0.02
- protein stability index (genetic background: wild type): 0.6241 ± 0.0031

Sequence: LKLNHSFATIFK [MCM21 C-terminal 12 aa]
- protein stability index [1]: 0.684 ± 0.018
- protein stability index (genetic background: wild type): 0.677 ± 0.024

Sequence: LKQLDNLKSQLN [ARG4 C-terminal 12 aa]
- protein stability index [1]: 0.7 ± 0.013
- protein stability index (genetic background: wild type): 0.6755 ± 0.0019

Sequence: LLNSRATQDVVC [VMA3 C-terminal 12 aa]
- protein stability index [1]: 0.6342 ± 0.0054
- protein stability index (genetic background: wild type): 0.66 ± 0.0053

Sequence: LLQSGRYGGNRS [RCI37 C-terminal 12 aa]
- protein stability index [1]: 0.683 ± 0.011
- protein stability index (genetic background: wild type): 0.663 ± 0.021

Sequence: LLSVDGWRTDQL [QRI7 C-terminal 12 aa]
- protein stability index [1]: 0.721 ± 0.014
- protein stability index (genetic background: wild type): 0.758 ± 0.031

Sequence: LMGAALAAVIFL [FIT1 C-terminal 12 aa]
- protein stability index [1]: 0.672 ± 0.018
- protein stability index (genetic background: wild type): 0.668 ± 0.026

Sequence: LNFYNDNFGSQF [STP1 C-terminal 12 aa]
- protein stability index [1]: 0.723 ± 0.0098
- protein stability index (genetic background: wild type): 0.71 ± 0.048

Sequence: LNKEALKHNMLK [HSH49 C-terminal 12 aa]
- protein stability index [1]: 0.691 ± 0.048
- protein stability index (genetic background: wild type): 0.695 ± 0.092

Sequence: LNKKSSVKILLY [CMS1 C-terminal 12 aa]
- protein stability index [1]: 0.693 ± 0.01
- protein stability index (genetic background: wild type): 0.614 ± 0.0071

Sequence: LNWLIKGILTED [HFI1 C-terminal 12 aa]
- protein stability index [1]: 0.753 ± 0.033
- protein stability index (genetic background: wild type): 0.675 ± 0.039

Sequence: LPSERSRLSYTN [CBP3 C-terminal 12 aa]
- protein stability index [1]: 0.703 ± 0.026
- protein stability index (genetic background: wild type): 0.696 ± 0.071

Sequence: LPSPRFFSPITL [YER158W-A C-terminal 12 aa]
- protein stability index [1]: 0.685 ± 0.024
- protein stability index (genetic background: wild type): 0.702 ± 0.008

Sequence: LQFILPSMNLAN [GPB1 C-terminal 12 aa]
- protein stability index [1]: 0.692 ± 0.0087
- protein stability index (genetic background: wild type): 0.656 ± 0.015

Sequence: LQKFYLQVSTIS [YFR054C C-terminal 12 aa]
- protein stability index [1]: 0.456 ± 0.0082
- protein stability index (genetic background: wild type): 0.456 ± 0.0082

Sequence: LQPMEAFKYDRS [BIO2 C-terminal 12 aa]
- protein stability index [1]: 0.71 ± 0.0075
- protein stability index (genetic background: wild type): 0.731 ± 0.046

Sequence: LRASGDDSDPAY [PFA5 C-terminal 12 aa]
- protein stability index [1]: 0.7076 ± 0.0054
- protein stability index (genetic background: wild type): 0.687 ± 0.014

Sequence: LRKKQVKKKVKS [SLX8 C-terminal 12 aa]
- protein stability index [1]: 0.6885 ± 0.0062
- protein stability index (genetic background: wild type): 0.716 ± 0.061
